Test results taken from patent US20170224833A1, “SELF-ASSEMBLING MOLECULES THAT ACCUMULATE IN ACIDIC TUMOR MICROENVIRONMENTS” (OHIO STATE INNOVATION FOUNDATION, priority 2014, published 2017).
Blank lines part the entries; values can stand above or below the molecule they belong to. Residues, ends and D or L forms follow the SMILES beside them. *: point of attachment. Palmitoyl = CCCCCCCCCCCCCCCC(=O)*

How the values were obtained:
Type in all cases: physicochemical
[1] = Critical aggregation concentration (CAC), pyrene 1:3 method
Method: For the CAC measurements, a series of solutions of the PA with concentrations ranging from 10 nM to 300 μM were prepared using serial dilutions in 150 mM NaCl and 2.2 mM CaCl2. The final concentration of pyrene in each solution was fixed to be 1.23 μM. This was followed by pH adjustment of the solutions using careful additions of HCl or NaOH. 70 μL of each solution was transferred to a 96-well plate and the fluorescence emission of pyrene was monitored using a hybrid reader fluorimeter (BioTek Synergy H4) at room temperature. The excitation wavelength was set at 335 nm. The ratio of the intensities of emissions at 376 nm and 392 nm were then plotted as a function of the PA concentration (log scale). The CAC was determined from an abrupt change in the slope of the plot using the least-squares fitting technique.
For CAC measurements, a series of solutions of either pure PA or PA mixture with concentrations ranging from 100-300 nM to 500-700 μM were prepared using serial dilutions in 150 mM NaCl and 2.2 mM CaCl2 (and 1.8 mM 20 kDa PEG in select samples). The final concentration of pyrene in each solution was fixed to be 4.5 μM. This was followed by pH adjustment of the solutions using careful additions of HCl or NaOH. 100 µL of each solution was transferred to a 96-well plate and the fluorescence emission of pyrene was monitored using a hybrid reader fluorimeter (BioTek Synergy H4) at room temperature. The excitation wavelength was set at 335 nm. The ratio of the intensities of emissions at 376 nm and 392 nm were then plotted as a function of the PA concentration (log scale). The CAC was determined from an abrupt change in the slope of the plot using the least-squares fitting technique.
The pyrene 1:3 method was used to determine CAC for the PAs (Aguiar, J., et al. J. Colloid Interface Sci. 2003 258:116-122). For both PA71 and PA68, CAC measurements were performed at various pH values (5-10). Samples of high PA concentration (300-750 μM) were prepared in deionized water containing 150 mM NaCl and 2.2 mM CaCl2. These samples were raised to 9 or greater pH using NaOH and heated at 80° C. for 30 minutes. Samples were then allowed to cool to room temperature and pH was altered to the desired value using dilute NaOH and HCl. Solutions containing only aqueous 150 mM NaCl and 2.2 mM CaCl2 and solutions containing these salts, a 1:1 solution of water and methanol, and 62 μM pyrene were also prepared. Each of these solutions was divided into various portions and adjusted to appropriate pH values. The PA solutions were serially diluted with the corresponding salt solutions with a total of 125 μL at each concentration. 5 μL of the pyrene containing solution as added to each dilution for a final pyrene concentration of 2.4 μM. Each diluted sample was probed for fluorescence with an excitation wavelength of 335 nm. Fluorescence was recorded with particular attention paid to the 376 nm and 392 nm emission peaks. The ratio of these two peaks was plotted versus PA concentration on a log scale. The CAC was determined from an abrupt change in the slope of the plot using the least-squares fitting technique.
Critical aggregation concentration (CAC) measurements were carried out to determine the concentration at which micelles or nanofibers begin to form by using the pyrene 1:3 method, (citation) All samples were basified to a pH of 10, stirred at 90° C. for 30 minutes in an oil bath and cooled to room temperature. HCl and NaOH were then added to set the PA solution specific pH value. PAs with concentrations ranging from 100 μM to 500 μM were serial diluted with 150 mM NaCl and 2.2 mM CaCl2. A pyrene solution was then added to each of the diluted samples, for a final pyrene concentration of 4.5 μM. 100 μL of each serial diluted sample were transferred into a 96-well plate and the fluorescence emission of the pyrene was monitored by a hybrid reader fluorimeter (BioTek Synergy H4) at room temperature with an excitation wavelength of 335 nm. […]

[2] = MRI r1 relaxivity measurement, 1.5 Tesla; conditions: 500 μM, 1.5 T
Method: An MR relaxometry phantom was built by fixing 5 mm NMR sample tubes containing PA samples at a concentration of 500 μM and pH values 4 and 10 in a 600 ml beaker filled with deionized water. The samples also contained 150 mM NaCl and 2.2 mM CaCl2. The phantom was scanned on a 1.5 Tesla Signa Excite MRI scanner using an 8-channel phased-array head coil (GE Healthcare, Milwaukee, Wis., USA). R relaxometry data were acquired using an Inversion Recovery Fast Spin-Echo (IR-FSE) sequence with the following parameters: inversion time TI=50/100/200/400/600/800/1200/1600/3200 ms; repetition time TR=8000 ms; echo time TE=11 ms; echo train length=10; 90° flip angle; 100×100 mm^2 field-of-view (FOV); 0.5 mm in-plane resolution; 2 mm slice thickness; single coronal slice placed at the center of the phantom. Sample longitudinal relaxation rates (R1) were calculated by fitting the MR signal intensities observed at different TIs (S(TI)) to a three parameter model [Lu et al., MRM 2004]:
S(TI)=|S0×(1−C×exp(−TI×R1))|
Where S0 is the equilibrium signal, C is a constant accounting for imperfect inversion of magnetization. The r1 relaxivity was calculated as the slope in the linear relationship between sample concentrations and their R1 relaxation rates.

[3] = pH titration of peptide amphiphiles (pKa); conditions: 10 μM
Method: The titration measurements were conducted on 10 μM peptide amphiphile solutions prepared in 150 mM NaCl and 2.2 mM CaCl2 using milli-Q water. The solution was heated at 80° C. for 30 minutes followed by slow cooling at room temperature. The pH of the solution was then adjusted to 4 using HCl. Finally, an Accumet XL15 pH meter (Fisher Scientific) coupled with an Orion Ross Ultra semi-micro electrode (8103BNUWP, Thermo Scientific) was used to track changes in pH of the solution as NaOH solution was added in small increments. pKa values were obtained from the second inflection points of the first derivative plots of the titration data. The first transition corresponds to neutralization of excess HCl. The calculated pKas reflect the average pKa for all four glutamic acids.

[4] = pH 5, 150 mM NaCl, 2.2 mM CaCl2

Molecule: palmitoyl-YYAAEEEEEK(DO3A:Gd)-NH2 (Palmitoyl-YYAAEEEEEK(DO3A)-NH2; also: DO3A chelates Gd) [PA74]
CAC higher than PA75 ([1]; pH 6): ~500%
CAC ([1]; pH 7.06): 9.3 µM
CAC higher than PA75 ([1]; pH 8): 5%
CAC ([1]; pH 9.02): 21.6 µM

CAC, times lower than PA1 ([1]; comparable pH values): 3-5
CAC [1, 4]: 1.1 µM
CAC ([1]; pH 10, 150 mM NaCl, 2.2 mM CaCl2): 7.5 µM
Molecule: CCCCCCCCCCCCCCCC(=O)N[C@@H](C)C(=O)N[C@H](C(=O)N[C@@H](C)C(=O)N[C@@H](C)C(=O)N[C@@H](CCC(=O)O)C(=O)N[C@@H](CCC(=O)O)C(=O)N[C@@H](CCC(=O)O)C(=O)N[C@@H](CCC(=O)O)C(N)=O)[C@@H](C)CC [PA68] (Palmitoyl-AIAAEEEE-NH2)

Molecule: Palmitoyl-AIAAEEEEK(DO3A:Gd)-NH2 (Palmitoyl-AIAAEEEEK(DO3A)-NH2; also: DO3A chelates Gd) [PA71]
CAC (below the detectable limit) ([1]; all pH values tested except pH 10): 200 to 300 nM
CAC [1, 4]: 1.3 µM
CAC, fold lower than PA5 ([1]; pH ~7): > 6

Molecule: Palmitoyl-IAAAEEEEK(DO3A:Gd)-NH2 (Palmitoyl-IAAAEEEEK(DO3A)-NH2; also: DO3A chelates Gd) [PA5]
relaxivity of water protons ([2]; pH 4 (nanofibers)): 8.3 mM⁻¹ s⁻¹
relaxivity of water protons ([2]; pH 10 (spherical micelles)): 6.6 mM⁻¹ s⁻¹

glutamic acids in the deprotonated form at the transition [3]: 98.8%
critical aggregation concentration (CAC) ([1]; pH 6.6): 6.0 µM
Molecule: CCCCCCCCCCCCCCCC(=O)N[C@H](C(=O)N[C@@H](C)C(=O)N[C@@H](C)C(=O)N[C@@H](C)C(=O)N[C@@H](CCC(=O)O)C(=O)N[C@@H](CCC(=O)O)C(=O)N[C@@H](CCC(=O)O)C(=O)N[C@@H](CCC(=O)O)C(N)=O)[C@@H](C)CC [PA1] (Palmitoyl-IAAAEEEE-NH2)

Molecule: Palmitoyl-AAAIEEEE-NH2 (SMILES CCCCCCCCCCCCCCCC(=O)N[C@@H](C)C(=O)N[C@@H](C)C(=O)N[C@@H](C)C(=O)N[C@H](C(=O)N[C@@H](CCC(=O)O)C(=O)N[C@@H](CCC(=O)O)C(=O)N[C@@H](CCC(=O)O)C(=O)N[C@@H](CCC(=O)O)C(N)=O)[C@@H](C)CC) [PA70]
aggregation state by pyrene 1:3 method ([1]; all pH and concentration values): in the aggregated state across all pH and concentration values
